Data taken from publication PMC9158284, “N-terminally truncated Aβ4-x proteoforms and their relevance for Alzheimer’s pathophysiology” (Translational Neurodegeneration, 2022).
Entries after “also recorded” stand apart in the source; their conditions may differ.

Legend:
[1] = Thioflavin T binding assay; format: physicochemical; conditions: after 24-h incubation at 37 °C under physiological salt concentrations; 50 mM Tris–HCl pH 8.5; ex 435 / em 490 nm; three independent experiments
Description: Aggregation of the different Aβ homologues was also monitored by Thioflavin T binding, following previously described protocols. Briefly, 6 μl aliquots from each peptide aggregation time point were added to 184 μl of 50 mM Tris–HCl buffer, pH 8.5, and 10 µl of 0.1 mM thioflavin T (Sigma). Fluorescence was recorded for 300 s in an LS-50B spectrometer (Perkin Elmer, Waltham, MA) with a slit width of 10 nm and excitation and emission wavelengths of 435 and 490 nm, respectively.

[2] = Autoradiography after SDS-polyacrylamide gel electrophoresis of [125I]-labeled Aβ preparations; format: physicochemical; conditions: [125I]-labeled 24-h incubated preparations, 16.5% SDS–polyacrylamide gel
Description: (§1) One hundred micrograms of either full-length or truncated Aβ species in both monomeric and oligomeric forms were radiolabeled using 1,3,4,6-tetrachloro-3α-6α-diphenylglycoluril pre-coated tubes (Iodogen, ThermoFisher Scientific/Pierce, Waltham, MA) and Na^125I (1 mCi, PerkinElmer, Waltham, MA), following the manufacturer’s specifications. All radiolabeling procedures were carried out for 20 min in a Standalone Radioiodine IH-350 hood (Atlantic Nuclear, Rockland, MA). Following removal of free Iodine using a desalting polyacrylamide column (D-salt, cut off 1.8 kDa, Pierce), radioactivity of labeled Aβ was assessed in a Perkin Elmer 1470 automated gamma counter (Perkin Elmer, Waltham, MA). Under these experimental conditions, [^125I] incorporation rendered specific activities in the range of 3–5 µCi/µg with > 98% TCA precipitable counts. Aggregation status of the [^125I]-labeled Aβ monomeric and oligomeric species was analyzed by autoradiography following 16.5% SDS–polyacrylamide gel electrophoresis and subsequent direct exposure to HyBlot CL film (Denville Scientific Inc., South Plainfield, NJ), as we previously described. If not immediately used for the clearance experiments, [^125I]Aβ oligomeric peptides were stored at -80 °C and used within a week to prevent further oligomerization and minimize radiolysis.

[3] = after 24-h incubation at 37 °C, 50 μM in 10 mM phosphate buffer pH 7.4, 150 mM NaF; mean of 15 scans
Description: Changes in the secondary structure of the different Aβ peptides induced by the oligomerization procedure were estimated by CD spectroscopy, as previously described [66]. The HFIP-pretreated peptides were solubilized in deionized water as above, followed by further dilution to a final concentration of 50 μM in 10 mM phosphate buffer, pH 7.4, containing 150 mM sodium fluoride. Spectra in the far-ultraviolet (wavelength range: 190–260 nm; band-width 1 nm; intervals 1 nm; scan rate 60 nm/min) were recorded for each peptide immediately after solubilization and following 24-h incubation at 37 °C in a Jasco J-720 spectropolarimeter (Jasco Inc., Easton, MD) using a 1-mm-path quartz cell. For each sample, 15 consecutive spectra were obtained and averaged, the baseline reading was subtracted, and results were expressed in terms of molar ellipticity (deg × cm^2/dmol).

[4] = mouse, in vivo; cited from earlier work
Description: In this sense, it is important to emphasize that the cerebral microvasculature, a main player in the regulation of Aβ homeostasis, suffers ...

[5] = set-up: species or system C57BL/6 mice; conditions: mouse, in vivo
Description: as §1
C57BL/6 mice (Taconic Biosciences, Hudson, NY) were intracerebrally injected with the different Aβ preparations following institutionally approved IACUC protocols, essentially as previously reported by our laboratory. […] Radioactivity remaining in the whole brain was assessed in the Perkin Elmer 1470 γ-counter.

[6] = Electron microscopy after negative staining; format: physicochemical; conditions: 24-h incubation/oligomerization
Description: All synthetic homologues were incubated at a concentration of 1 mg/ml in 1,1,1,3,3,3,hexafluoro-isopropanol (HFIP; Sigma Chemical Co., St. Louis, MO) for 4 days, a pretreatment that breaks down β-sheet structures and disrupts hydrophobic forces, leading to monodisperse amyloid subunit preparations [67]. The HFIP-pretreated peptides were lyophilized and subsequently reconstituted to 1 mM in 1% NH4OH followed by further dilution in phosphate-buffered saline (PBS) to a final concentration of 50 µM and immediately used for radioiodination and direct intracerebral injection. […] The resulting oligomers were immediately used for radiolabeling and intracerebral injections.
Peptide oligomerization was also monitored by electron microscopy, as previously described [38, 66, 71]. Five microliters of either monomeric or oligomeric preparations of the different Aβ peptides were placed onto carbon-coated 400 mesh Cu/Rh grids (Ted Pella, Inc., Redding, CA) and stained with 1% uranyl acetate in distilled water (Polysciences, Inc., Warrington, PA). The stained grids were examined in a Philips CM-12 transmission electron microscope and photographed with a Gatan (4 k × 2.7 k) digital camera at the Image Core Facility of the Skirball Institute of Biomedical Medicine, NYU School of Medicine, as described [66, 71, 72].

Row | Substance | Thioflavin T binding (fluorescence) of oligomerized peptides [1] | SDS-resistant oligomeric species of 24-h incubated preparations [2] | Secondary structure by CD upon oligomerization [3] | Percentage cleared from brain, oligomeric form [4] [%] | Brain clearance, percentage cleared relative to the total injected radioactivity, oligomeric (24-h incubated) preparation [5] | Protofibrillar assemblies after the aggregation procedure, length (electron microscopy) [6]
1 | Aβ1-40: Synthetic homologue of full-length amyloid-β 1-40 | low-to-intermediate thioflavin T binding activity | dimeric, trimeric and tetrameric assemblies | intermediate mixture of β-sheet and unordered structures | < 40 |  | 
2 | Aβ4-40: Synthetic homologue of Aβ1-40 N-terminally truncated at Phe4 | low-to-intermediate thioflavin T binding activity; also recorded: higher thioflavin-binding activity than the full-length counterpart Aβ1-40 | from tetramers to dodecamers | predominant unstructured random conformations |  | 46% ± 5% | 
3 | Aβ1-34: Synthetic homologue of amyloid-β C-terminally truncated at Leu34 | negligible fluorescence signal | did not oligomerize within the 24-h experimental timeframe | maintained the same unordered conformation before and after |  | 86% ± 6% | did not form protofibrilar elements
4 | Aβ1-42: Synthetic homologue of full-length amyloid-β 1-42 | highest thioflavin T binding | from tetramers to dodecamers | this type of secondary structure became more relevant |  | 61% ± 4% | 
